Data published in patent US20050176632A1 (published 2005).

B1: human type ZAQ ligand mature peptide (type G, 86 amino acid residues) (ligand)
chain: AVITGACERDVQCGAGTCCAISLWLRGLRMCTPLGREGEECHPGSHKVPFFRKRKHHTCPCLPNLLCSRFPDGRYRCSMDLKNINF
B2: snake venom MIT1 (ligand)
chain: AVITGACERDLQCGKGTCCAVSLWIKSVRVCTPVGTSGEDCHPASHKIPFSGQRMHHTCPCAPNLACVQTSPKKFKCLSK

Key:
[1] = biological target: human type ZAQ (G protein-conjugated receptor protein ZAQ) expressed on CHO cells (ZAQC-B1 cells) (human, UniProt Q8TCW9 1-393); assay: cell-based or functional assay
Sequence of human type ZAQ (G protein-conjugated receptor protein ZAQ) expressed on CHO cells (ZAQC-B1 cells) (Q8TCW9 whole entry): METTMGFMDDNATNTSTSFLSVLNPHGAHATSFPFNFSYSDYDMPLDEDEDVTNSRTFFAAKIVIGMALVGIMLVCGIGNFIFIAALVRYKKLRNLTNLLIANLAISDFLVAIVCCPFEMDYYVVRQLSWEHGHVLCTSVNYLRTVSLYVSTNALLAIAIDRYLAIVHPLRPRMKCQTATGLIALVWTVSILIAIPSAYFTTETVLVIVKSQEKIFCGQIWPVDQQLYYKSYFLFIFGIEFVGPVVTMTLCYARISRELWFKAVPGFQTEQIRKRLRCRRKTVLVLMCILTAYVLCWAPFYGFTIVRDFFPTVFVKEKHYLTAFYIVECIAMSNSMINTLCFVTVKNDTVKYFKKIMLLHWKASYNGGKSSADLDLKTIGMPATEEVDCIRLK

[2] = biological target: human type I5E receptor expressed on CHO cells (I5E-4 cells) (human, UniProt Q8NFJ6 1-384); assay: cell-based or functional assay
Sequence of human type I5E receptor expressed on CHO cells (I5E-4 cells) (Q8NFJ6 whole entry): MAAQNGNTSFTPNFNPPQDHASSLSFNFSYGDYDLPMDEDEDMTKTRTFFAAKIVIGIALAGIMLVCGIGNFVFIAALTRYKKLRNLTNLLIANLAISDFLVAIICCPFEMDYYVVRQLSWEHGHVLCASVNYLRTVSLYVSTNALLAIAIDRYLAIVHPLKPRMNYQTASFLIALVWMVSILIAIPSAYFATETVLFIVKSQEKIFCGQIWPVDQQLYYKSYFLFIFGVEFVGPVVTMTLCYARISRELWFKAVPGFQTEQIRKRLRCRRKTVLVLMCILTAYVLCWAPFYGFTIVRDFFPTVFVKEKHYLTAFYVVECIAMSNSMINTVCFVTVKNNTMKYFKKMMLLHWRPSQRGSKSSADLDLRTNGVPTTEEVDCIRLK

Binder	EC50 of the increase of intracellular calcium concentration in ZAQ expression CHO cells (ZAQC-B1 cells), FLIPR [1] [nM]	action to activate a human type I5E receptor, relative to the human type ZAQ ligand peptide (FLIPR) [2]	action to activate an I5E receptor, relative to the human type Bv8 peptide (FLIPR) [2]	action to activate a ZAQ receptor, relative to the human type ZAQ ligand peptide (FLIPR) [1]
B1	0.096			
B2		~100 times greater than the human type ZAQ ligand peptide	10 times greater than the human type Bv8 peptide	10 times greater than the human type ZAQ ligand peptide
